{"source": "patent US20200354451A1", "target": "human CD19 (human) (UniProt P15391)", "sequence (P15391 20-556)": "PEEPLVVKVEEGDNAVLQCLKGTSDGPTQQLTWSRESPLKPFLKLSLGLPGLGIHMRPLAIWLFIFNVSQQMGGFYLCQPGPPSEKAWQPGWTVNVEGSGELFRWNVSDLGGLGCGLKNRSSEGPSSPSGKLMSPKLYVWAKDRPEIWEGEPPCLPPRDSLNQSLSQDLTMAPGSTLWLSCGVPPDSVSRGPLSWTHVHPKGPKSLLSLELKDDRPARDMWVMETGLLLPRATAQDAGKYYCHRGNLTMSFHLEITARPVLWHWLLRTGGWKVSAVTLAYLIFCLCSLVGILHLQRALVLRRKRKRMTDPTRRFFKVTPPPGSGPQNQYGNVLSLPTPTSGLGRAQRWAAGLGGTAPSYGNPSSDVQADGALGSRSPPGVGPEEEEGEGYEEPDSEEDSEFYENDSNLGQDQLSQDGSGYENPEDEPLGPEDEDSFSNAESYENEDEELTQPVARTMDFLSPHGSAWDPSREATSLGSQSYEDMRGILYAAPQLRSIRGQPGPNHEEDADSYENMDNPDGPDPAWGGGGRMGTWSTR", "assay": "cell-based or functional assay", "data": [{"substance": "CD19 CAR (mouse FMC63 scFv, no TF)", "values": [{"measurement": "IFN-gamma secretion (ELISA), Hela-CD19 target cells", "result": 8870, "unit": "pg/mL"}]}]}
